Blank lines part the entries; values can stand above or below the substance they belong to.
What was measured:
[1] = target: therapeutic human IgG1 (human); assay: ITC, 15 °C, PBS pH 7.4, reported per IgG1
[2] = target: therapeutic human IgG1 (human); assay: ITC, 15 °C, PBS pH 7.4, reported per ligand
[3] = target: therapeutic human IgG1 (human); assay: affinity precipitation: 5 mM C12-Z33 with 20 µM IgG1, 0.6 M Na2SO4, absorbance of the supernate at 280 nm
[4] = target: IgG; assay: affinity precipitation: C12-VVEE to binding molecule 50:1, binding molecule to IgG 10:1, 1 M ammonium sulfate
[5] = target: IgG; assay: affinity precipitation: C12-VVEE to binding molecule 50:1, binding molecule to IgG 10:2, 1 M ammonium sulfate
[6] = target: IgG; assay: affinity precipitation: co-assembled with C12-VVEE at 10:1, binding molecule to IgG 10:1, 1 M ammonium sulfate, IgG in the supernatant by ProA column

-TΔS° [1]: 43.4 kcal/mol
ΔG° [1]: -10 kcal/mol
ΔH° [1]: -53.4 kcal/mol
-TΔS° [2]: 13.6 kcal/mol
Kd [2]: 60 nM
ΔG° [2]: -9.5 kcal/mol
ΔH° [2]: -23.1 kcal/mol
Substance: Z33 peptide

IgG1 removed from the supernate [3]: > 60%
Substance: C12-Z33 immuno-amphiphile (self-assembled immunofibers) (peptide)

IgG precipitation yield [4]: 99%
IgG precipitation yield [5]: 75%
IgG precipitated out from the solution [6]: 30%
Substance: C12-VVKKGG-Z33 binding molecule (peptide)

— patent US20240082816A1
